Measured values published in the nanobody polyreactivity screen of Harvey et al. (2022).

Test: yeast display, Sf9 membrane polyspecificity reagent, FACS + sequencing; frameworks hold sequencing errors
Summary of the method: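 Using colony PCR, genes from sorted yeast display clones were amplified, then sequenced on MiSeq at 2 × 250 and filtered by CDR length. The clones had been stained with 10% biotinylated, detergent-solubilized Sf9 membrane reagent for 1 hour at 4 °C and sorted by FACS into low and high (top ~1%) gates on anti-HA and streptavidin fluorescence. Polyreactivity labels come from the gate of origin.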

Sequence: QVQLVESGGGLVQAGGSLRLSCAASGSTFISNTIGWYRQAPGKERELVAAISSGGDTSYADSVKGRFTISRDNAKNTVYLQMNILKPEDTAVYYCNVDTSATSYSSEYDYWGQGTQVTVSS
- polyreactivity (PSR sort gate): low polyreactivity

Sequence: QVQLVESGGGLVQAGGSLRLSCAASGSTFISYAMGWYRPAPGKERELVAAISRNGGSTDYADSVKGRFTISRDNAKNSVYLQMNSLKPEHTAVYYCAAEYDTWWGGYDYWGQGTQVTVSS
- polyreactivity (PSR sort gate): high polyreactivity

Sequence: QVQLVESGGGLVQAGGSLRLSCAASGSTFITNAMGWYRQAPGKERELVAAISSSGGSTYYADSVKGRFTISRDNAKNTVYLQMNSLKPEDTAVYYCNAVPYVPRFDYWGQGTQVTVSS
- polyreactivity (PSR sort gate): low polyreactivity

Sequence: QVQLVESGGGLVQAGGSLRLSCAASGSTFITNIMGWYRQAPGKERELVAAISYIDGTTYYADSVKGRFTISRDNAKNTVYLQMNSLKPEDTAVYYCAAYPYLYPLRFEEYDHWGQGTQVTVSS
- polyreactivity (PSR sort gate): low polyreactivity

Sequence: QVQLVESGGGLVQAGGSLRLSCAASGSTFITNSMGWYRQAPGKERELVAAITYSTGGTYYADSVKGRFTISRDNAKNTVYLQMNSLKPEDTAVYYCAALLYFFLYDYWGQGTQVSVSS
- polyreactivity (PSR sort gate): low polyreactivity

Sequence: QVQLVESGGGLVQAGGSLRLSCAASGSTFITYAMGWSRQAPGKERELVAAISDSGGDTYYADSVKGRFTISRDYAKNTVYLQMISLNPEDTAVFYCAAEDDRYVYGDMNYWGQGTQVTVSS
- polyreactivity (PSR sort gate): low polyreactivity

Sequence: QVQLVESGGGLVQAGGSLRLSCAASGSTFITYAMGWYRQAPGKERELVAAIRWSGGGTYYADSVKGRFTISRDTAKNTVYLQMNSLKPEDTAVYYCAADHFNYTTGRDYWGQGTQVTVSS
- polyreactivity (PSR sort gate): low polyreactivity

Sequence: QVQLVESGGGLVQAGGSLRLSCAASGSTFIVYGMGWYRQAPGKEREFVAAITTRSGSTYYADSVKGRFTISRDNAKNTVYLQMNSLKPEDTAVYYCAAVPGTPRHDYWGQGTQVTVSS
- polyreactivity (PSR sort gate): high polyreactivity

Sequence: QVQLVESGGGLVQAGGSLRLSCAASGSTFIYYAMGWYRQAPGKERELVAAISGSGASTYYADSVKGRFTISRDNAKNTVYLQMNSLKPEDTAVYYCAARSYGITDYGMYSWGQGTQVTVSS
- polyreactivity (PSR sort gate): high polyreactivity

Sequence: QVQLVESGGGLVQAGGSLRLSCAASGSTFIYYAMGWYRQAPGKERELVAAISKRGGNTYYADSVKGRFTISRDNAKNTVYLQMNSLKPEDTAVYYCAARVYGTSRRYYSWGQGTQVTVSS
- polyreactivity (PSR sort gate): high polyreactivity

Sequence: QVQLVESGGGLVQAGGSLRLSCAASGSTFIYYARGWYRQAPGKERELVASISRSGGSPYYADSVKGRFTISRDNAKNTVYLQMNSLKPEATAVYDCARAYRSSFNYWGQGTQVTVSS
- polyreactivity (PSR sort gate): high polyreactivity

Sequence: QVQLVESGGGLVQAGGSLRLSCAASGSTFKDNAMGWYIQAPGKERELVASITGRGGSTYYADSVKGRFTISRDNAKNTVYLHMNSLKPEDTAVYYCAARAYYGVYKSPYDYWGQGTQVTVSS
- polyreactivity (PSR sort gate): high polyreactivity

Sequence: QVQLVESGGGLVQAGGSLRLSCAASGSTFKFYAMGWYRQAPGKERELVAAISGSSGSTYYADSVKGRFTISRDNAKNTVYLQMNSLKPEDTAVYYCNTQYSRYYTRYSAYDYWGQGTQVTVSS
- polyreactivity (PSR sort gate): low polyreactivity

Sequence: QVQLVESGGGLVQAGGSLRLSCAASGSTFKHYAMGWYRQAPGKERELVAAISSGGSTKYADSVKGRFTISRDNAKNTVYLQMNSLKPEDTAVYYCAARSFFKMYYWGQGTQVTVSS
- polyreactivity (PSR sort gate): low polyreactivity

Sequence: QVQLVESGGGLVQAGGSLRLSCAASGSTFKIYAMAWYRQAPGKERELVAAITGSGGSTYYADSVKGRFTISRDNAKNTVYLQMNSLKPEDTAVYYCAVDVYYYVATEFYEYDYWGQGTQVTVSS
- polyreactivity (PSR sort gate): high polyreactivity

Sequence: QVQLVESGGGLVQAGGSLRLSCAASGSTFKIYAMGWYRQAPGKERELVAAITRSGGSTYYADSVKGRFTISRDNAKNTVYLQMNSLKPEDTAVYYCAASRFTSYGIDYDYWGQGTQVTVSS
- polyreactivity (PSR sort gate): high polyreactivity

Sequence: QVQLVESGGGLVQAGGSLRLSCAASGSTFKPYAMGWYRQAPGKERELVAAITWTGGSTYYADSVKGRFTISRDNAKNTVYLEMNSLKPDDTAVYYCNAYLRWYITLLRYLAGGDYWGQGTQVTVSS
- polyreactivity (PSR sort gate): high polyreactivity

Sequence: QVQLVESGGGLVQAGGSLRLSCAASGSTFKPYTMGWYRQAPGKERELVAGISSVDSTDYADSVKGRFTISRDNAKNTVYLQMNSLKPEDTAVYYCNKRKWPTFTYAMNYWGQGTQVSVSS
- polyreactivity (PSR sort gate): low polyreactivity

Sequence: QVQLVESGGGLVQAGGSLRLSCAASGSTFKQYAMGLYRQAPGTERELVAVITWRGGRTYYADSVKGRFTISRDYAKNTVYLQMNSLKPEDTAVYYCAADYFSFIPGYDYWGQGTQVTVSS
- polyreactivity (PSR sort gate): high polyreactivity

Sequence: QVQLVESGGGLVQAGGSLRLSCAASGSTFKQYAMGWYRQAPGKERELVAAISRSGSRTYYADSVKGRFTISRDNAKNTVYLQMNSLIPEDTAVYYCAAERRSTAGWLYDYWGQGTQVTVSS
- polyreactivity (PSR sort gate): high polyreactivity

Sequence: QVQLVESGGGLVQAGGSLRLSCAASGSTFKRNAMGWYRQAPGIERELVAAISYSGGSTYYADSMKGRFTISRDNAKNTVYLQMNSLKPEDTAVYYCWGPGTQVTVSS
- polyreactivity (PSR sort gate): low polyreactivity

Sequence: QVQLVESGGGLVQAGGSLRLSCAASGSTFKRYAMGWYRQAPGKEREFVAGISSRGSRTYYADSVKGRFTISRDNAKNTVYLQMNSLKPEDTAGYYCAVSGNHVSPPYGYWGQGTQVTVSS
- polyreactivity (PSR sort gate): high polyreactivity

Sequence: QVQLVESGGGLVQAGGSLRLSCAASGSTFKRYAMGWYRQPPGKERELVASISSGGSTNYADSVKGRFTISRDNAKNSVYLQMNSLKPEDTAVYYCAAGYHVSTRGLIGHFDYWGQGTQVTVSS
- polyreactivity (PSR sort gate): high polyreactivity

Sequence: QVQLVESGGGLVQAGGSLRLSCAASGSTFKRYVMGWYRQAPGKERELVAAISSRGGSTYYADSVKGRFTISRDNAKNTVYLQMNSLKPEDTAVYYCASANVRAEDYWGQGTQVTVSS
- polyreactivity (PSR sort gate): high polyreactivity

Sequence: QVQLVESGGGLVQAGGSLRLSCAASGSTFKVNDMGWYRQAPGKERELVAAIDKSGGTTYYADSVKGRFTISRDNAKNTVYLQMNSLKPEDTAVYYCAADVIYEMDYWGQGTQVTVSS
- polyreactivity (PSR sort gate): low polyreactivity

Sequence: QVQLVESGGGLVQAGGSLRLSCAASGSTFKWTAMGWYRPAPGKERELVAAITGSGTGTYYADSVKGRFTISRDNAKNTVYLQMNSLKPEDTAVYYCAAYVYGYKYYYWGQGTQVTVSS
- polyreactivity (PSR sort gate): high polyreactivity

Sequence: QVQLVESGGGLVQAGGSLRLSCAASGSTFKWYAMGWYRQAPGKERELVAAITRGGSTSYADSVKGRFTISLDNAKNTVYLQMNSLKPEDTAVYYCAADYHYTKSMYYWGQGTQVTVSS
- polyreactivity (PSR sort gate): low polyreactivity

Sequence: QVQLVESGGGLVQAGGSLRLSCAASGSTFKYNTMGWYRQAPGKESELVARISWSGTRTYYADSVKGRFTISRYNAKNTVYLQMNSLKPEDTAVYYCAKVSYFWSPYGYDSCGQGTQVTVSS
- polyreactivity (PSR sort gate): high polyreactivity

Sequence: QVQLVESGGGLVQAGGSLRLSCAASGSTFKYYAMGWYRQAPGKEREFVAAITANGGRTYYADSVKGRFTISRDNAKNTVYLQMNSLKPEDTAVYYCAARTWYYYVYGYESWGQGTQVTVSS
- polyreactivity (PSR sort gate): high polyreactivity

Sequence: QVQLVESGGGLVQAGGSLRLSCAASGSTFKYYAMGWYRQAPGKEREFVASINWSGVSTYYADSVKGRFTISRDNAKNTVYLQMNSLKPEDTAVYYCAARVRGKYDYWGQGTQVTVSS
- polyreactivity (PSR sort gate): high polyreactivity

Sequence: QVQLVESGGGLVQAGGSLRLSCAASGSTFKYYAMGWYRQAPGKERELVASITRTGSSTYYADSVKGRFTISRDNAKNTVYLQMNSRKPEDTAVYYCNTGPHSVWWHYGYDYWGQGTQVTVSS
- polyreactivity (PSR sort gate): high polyreactivity

Sequence: QVQLVESGGGLVQAGGSLRLSCAASGSTFLANTMGWYRQAPGKEREFVAAITRRGGSTYYADSVKGRFTISRDNAKNTVYLQMNSLKPEDTAVYYCNAEWDFQYPYDYWGQGTQVTVSS
- polyreactivity (PSR sort gate): low polyreactivity
